The results in this text go back to the DeepSol protein solubility set.

The data set is described as follows: soluble on expression in E. coli; label from the status in PepcDB or PDB records.
Turning to “MAQREWVEKDFYQELGVSSDASPEEIKRAYRKLARDLHPDANPGNPAAGERFKAVSEAHNVLSDPAKRKEYDETRRLFAGGGFGGRRFDSGFGGGFGGFGVGGDGAEFNLNDLFDAASRTGGTTIGDLFGGLFGRGGSARPSRPRRGNDLETETELDFVEAAKGVAMPLRLTSPAPCTNCHGSGARPGTSPKVCPTCNGSGVINRNQGAFGFSEPCTDCRGSGSIIEHPCEECKGTGVTTRTRTINVRIPPGVEDGQRIRLAGQGEAGLRGAPSGDLYVTVHVRPDKIFGRDGDDLTVTVPVSFTELALGSTLSVPTLDGTVGVRVPKGTADGRILRVRGRGVPKRSGGSGDLLVTVKVAVPPNLAGAAQEALEAYAAAERSSGFNPRAGWAGNR”, the “soluble on expression in E. coli” value was “soluble”.

In the case of “MGSDKIHHHHHHMKEKIVLAPQKGPQEMFLATSADICIYGGAAGGGKTFGLLLEPLRYMNNPDYNATIFRRDYTQVTSPGGLWDSSRKIYRYVKGSRPLKTPKLHWTFKRGASVNFAHLGRDEDCDDWQGSQLTMIGFDELTHFSEYQFFYMLSRNRTDSGVKPYVRATCNPDADSWVAEFISWWINQETGYPIPERSGVIRWMVRLNEVVTWFDSREEAVQGAIENGVKPEQAETMPKSVTFIASTLHDNKILMKNDPGYLANLQAMTLVQRERLLHGNWKIKAAAGLMFKRVKVNMLEEIPPDVIKWARGWDLAATSEDEKGDPAYTAGVLIGKRRNGRYIVADVINRRLSSSDVREIIKQTCIADRAKYGRVATRLPQDPGQAGKDQAQSFMKLLAGFTVKCIQESGDKVTRAEPFSAQWLGLEGMDKGNVDVLIAPWNEEYFNECENFPQSKFKDMVDASSSAFTELESGATYSAPPKDSQLGKSSYWNK”, the “soluble on expression in E. coli” value is “not soluble”.

For the sequence “GPGSMYARYRTRSRFYKRPEKMLKAYNVSPNLLRLPKVKPGLLKGIYTDEKIDLRDRERLELVESIRHPKERDFYQDHTYHNQWIARDLESHQKIQIAGRYPYFSPDYEIKPWIWYPGDTVEVVSGEGAGQRGAIIAVVKYKNEILVQNVNVQDVVIPASETRPEQVVQREHPISVLRVRHVDPSTNQLCHLEIVKVRNKETGELEERRISLESGALLPIPAPEETVEAGDPLKDTAIQDADEETYDREKEMPLLVVRRLQAMENYFVDSLQKSHEYHKALQMRNAQDMQTFQKDVLVRATEKLAAAAAVFGHGAMAEAGSQAASVASESSQAGDAEEDAVKGTITVETVVAEVLKSEQRFRSDAAAPGVPGWWQNMIDAYVSVLEEEEATIEAEAAAQAQAAEADRRAEQLMADATAEVGQSMEEDGTMEGGDEDLDEQDGDLDEDSSRSDRSK”, the “soluble on expression in E. coli” value is “not soluble”.

For “MGSDKIHHHHHHMNWSQIISLVSAGNYMEVEKILQDYPYIVDMADHLREQKLKVIANLDTYVKRTMDSVEKLGGHAYLAKDKDEARKIIGDLVGEKKTVVFSKTNVAYEIGLREFLQERNNEVWETDLGEYLVQISRGWPTHIVAPALDMTREEAAKAVKKIDPSINENSKIEDIVAAVRKFLMSKYVKADVGITGANAVAADSGSVALVENEGNIRIDTVMPPMHIAVTGIDKIVPTMRDALDEVMVQAAYAGIFPPTYINVTSGPSSTADIELRRVSPATGPKDFHLVLIDNGRLEASKNEDLKEALLCIKCGRCYFSCPIYRTLGKEWISTKSPYNGPTGVMWNYITNKDPWPASYCVHSGGCKEVCPMKINIPEVIKYIKFIGSKQVGK”, the “soluble on expression in E. coli” value is given as “not soluble”.

As to “MHVAMALADIDRVGGVVIIDPVVHPLTPKHPPNQAERGQIRADRCSTAVFAWLFHEWNATGRSALMRGLTCFAGNTNAQPKHPRRAFRDRLGSTGPRPPRLTVASTPSRQPHHRRILIVTKAKSGSVAPELDTPTDLPPQSVEKISTALNGLLADSFALYLKTKNFHWHISGRHFRDYHLLLDEQSAQILATTDDLAERVRKVGGTTLRSIGHISKLQSIQDNNDDYVPPREMLRELMNDNKKVAAAMRKAHEIVDECKDAASAGLLENFIDETEKRTWFLFEATRQEGANEA”, the “soluble on expression in E. coli” value is on record as “not soluble”.

On to “MAHHHHHHMSLSIHTNYGDIKIELFCYEVPKTCKNFLALCASGYYDNTKFHKNIKGFAIQGGDPTNTGKGGQSIYGKYFEDEFDSTLKHDKRGIVSMANKGKPNTNGSQFFITYSRQPHLNGIYPVFGKVIDGMDVLSVLENEPVGEKSRPIKDIIIETITIHANPIAEEESVDN”, for which the “soluble on expression in E. coli” value was “not soluble”.

As for “MKDVVEYLVRYLVDRPEAVRVQVRRGKEGTVYLVEVAPEDKGRLIGKGGRVIESLRTVVRAYAKRKVGVEVR”, the “soluble on expression in E. coli” value was “soluble”.

Take “MRGSHHHHHHGSELSKSSIVDKVELDHTTLYQGEMTSIKVSFSDKENQKIKPGDTITLTLPDALVGMTENDSSPRKINLNGLGEVFIYKDHVVATFNEKVESLHNVNGHFSFGIKTLITNSSQPNVIETDFGTATATQRLTIEGVTNTETGQIERDYPFFYKVGDLAGESNQVRWFLNVNLNKSDVTEDISIADRQGSGQQLNKESFTFDIVNDKETKYISLAEFEQQGYGKIDFVTDNDFNLRFYRDKARFTSFIVRYTSTITEAGQHQATFENSYDINYQLNNQDATNEKNTSQVKNVFVEGEASGNQNVEMPTEESLDIPLETIDEWEPKTPTSEQATETSEKTD”: the “soluble on expression in E. coli” value was “soluble”.

Consider “MSILDGFKEVGESNNGKLTMTVMLESVRFSKNVSAVLGFPKYVKVLVNNDEKKFAIQKCNDKDEYAIRFATKKPGEASAVTLRNVDLLVATQKFFSFPELDDPTKIAFYALDGEYYSDEQVIVFNVEGAKNGTVGKRGPKAGSHRKTSQAKLEHHHHHH”, for which the “soluble on expression in E. coli” value is on record as “soluble”.

For “RLSQRLIEPVSALKVQLDQHQGDTSQKFIVPEGSAKEFQTLASQLNEYRSQINQVIKREQAFARYASHELRTPLTVMKGSSSLLARSPSTPFQERQIGRIQDATQQMSTMVDALLGLVRYERNTDDSPVRTISEQELHNIVALSQAQADEKSLEFNVQILGHPQTKATTAVLNITLSNLIRNGIAATSAGTIHITMTDTTLSVKDEGEGFSSVPDAEGHGLGLMIVDDLCRRYGWQFTIDTHSEGGCEAVIDLSSEHHEACSEQLPQH”, the “soluble on expression in E. coli” value is on record as “not soluble”.

Regarding “GVALGATRVIYPEGQKQVQLAVTNNDDKSSYLIQSWIENAEGKKDARFVITPPLFSMQGKKENTLRIIDATNGQMPEDRESLFWVNVKAIPAMDKAKTGENYLQFAIVSRIKLLYRPQGLVIPPEQAPGKLEFTRENGGLTLFNPTPYYLTVTDLKAGNKSLENTMVPPQGKVTVNIPGGYTGGDITYKTINDYGALTEQVRGVVK”, the “soluble on expression in E. coli” value is “soluble”.

Consider “MSLRYKVGEVAARLGLTLRTLKYYEELGLVTPERTDSRYRMYSEADVQRLERIRRMRALGLSLGTIQAISTHPQESDPDGRQVLTQEALHTLESDLSSQLTVLSTRITAAEKELKDARALRRDVQRDLDYVQRRLAGAQVGELLREKDPAEGHHHHHH”, for which the “soluble on expression in E. coli” value is listed as “not soluble”.

Take “HEHNISVTGGTDKIQYYLSANYLGQDGELRIGDEYSNRYTASAKINAQLSKIVSVGFNTRFIRSDYVQPTHLNESFFAEIGRQCWPTKPLYDPNGILYDDHVLQMQNGGEKQERNTWLYQQLNITVEPIKGWRLIGDLSYRYNTQYSHWDYLTVHQTGVDGKTKGNTWNNDSQVHEGTYASDYFNVNLYTDYAKTFAKSHNMKVLFGFQAEQNNYKDIAAEKLGVIYPGKPTINTSTGMDSNNQKVAPNVAGGHNRWATAGFFGRLNYDYLEKYLLEVNLRYDGSSRFRSDSRWGFFPSASVGWNIAREKFFLPVSKVVNTFKVRASYGSLGNQNTSSLYPTYSTIGTGTGSWIIDGTLANIAWAPSLVSYNLSWEKIRTWNAGVDFGLFNNRLTGSFDYYIRKTDDMVGPSEKLPVVLGTAVPSSNNTNLKTFGWELELMWKDRLNNGLNYSARFTLADSRTKITRYSNPSGLIDGFYAGKYVGEIWGYETIGIAQSDQEMAEHIGRLINGGQSNLGQDWKAGDIMYKDLNEDGKIDAGSRTLQDHGDLKRIGNSTPRYNVGLELAADWKGFDIRMFWQGTLKRDYFQGSYYFWGANGRQGPWFSTALKGHDDYFRNDEASPLGTNLNSYYPRPLFNTDKNQQSQTKYLQDASYLRLKNLQIGYSLPHNIVQKMGMQHLRIFASGENLFTITSLIDFFDPESIEGGSWGHGNVYPLSRTFSFGLNVTF”: the “soluble on expression in E. coli” value is reported as “not soluble”.

In the case of “MAKELCFEGITLKAFDEQYRSAINDFDLNERQQIYSSLPKEVIDDAINDVDRIANVAINDKNEVVGFFVLHRYYQHEGYDTPENVVYIRSLSINEKYQGFGYGTKIMMSLPQYVQGVFPDFNHLYLVVDAENDNAWNLYERAGFMHTATKEEGPIGKERLYYLDLDSKHVSSLKLEEESRSEVTNVHIINLMIDGQKVGFIALEQIGERMNIAAIEVDKSYRFNGIGSSALRQLPTYLRKNYDNLNVITMILFGENNDFKPLCLNSNFVEIEQTDDYVVFEKYLNY”, the “soluble on expression in E. coli” value is “not soluble”.

For the sequence “MGSDKIHHHHHHMTRPPDLLADVLDGIDALLVFSPSGSYYDRVDDVEGVDVVVVATENAVGAETFVELPLAFDDVREQIRFGIEGALSEGVVADGDELGCVAPFLSEEVDMVTRTRANAGTQSSVYELFASTRAEPGVIRDVFDVAIELGRKGQKGKPVGALFVVGDAGKVMTKSRPLSYNPFEKSHVHVGDPIVNVMLKEFSRLDGAFVISDSGKIVSSYRYLEPGAEGTDIPKGLGARHMAAGAITRDTNAVAIVLSESDGLVRAFRNGELVLELDPEDN”, the “soluble on expression in E. coli” value is given as “not soluble”.

Take “MSLPINVPSGLPAVKVLAKEGIFVMTEKRAIHQDIRPLEILILNLMPDKIKTEIQLLRLLGNTPLQVNVTLLYTETHKPKHTPIEHILKFYTTFSAVKDRKFDGFIITGAPVELLPFEEVDYWEELTEIMEWSRHNVYSTMFICWAAQAGLYYFYGIPKYELPQKLSGVYKHRVAKDSVLFRGHDDFFWAPHSRYTEVKKEDIDKVPELEILAESDEAGVYVVANKSERQIFVTGHPEYDRYTLRDEYYRDIGRNLKVPIPANYFPNDDPTKTPILTWWSHAHLFFSNWLNYCIYQKTPYRLEDIHEGHHHHHH”: the “soluble on expression in E. coli” value was “soluble”.

As for “MSDTANAAVEIGEEALEQKLEELSVQDKTTPSNSEEKMRKRRLPTAERIRLWEEEQKSKTAITTGLQGKVKWYSVLRRYGFISRNDGEKDIFVHQTAIAKSATEKFYLRTLGDDEEVLFDLVEGKNGPEAANVTGPNGDNVIGSRYRHKLLSRFRKNRKPRASVDGEESQSTDAKPQEMSADAEKKKPRKQRKNRNRKSKAQQKGAGDAADSSAVTESSESASDVASPDSKSCSKIITEEAGLSKVDRCDSALGEAGLGAQPIDAQI”, the “soluble on expression in E. coli” value was “soluble”.

On to “MGSDKIHHHHHHMDISGRDVETRLTLAREFMSGVDELPTVPDIVLRIAGKLNDPDVAIDEVADLLLQDQVLTARVVHLANSPLYSAARPISSIRDAVIYLGLDLLREAIFTCAIVDLFKTGKGPLNRSTLWAHSLGVARIAKLIAERTGFLNPVNVYVAGLLHDVGEVFINFFRGKEFSQVVTLVDEEKITFGQAEERLFGTSHCEVGFALAKRWSLNEFICDTILYHHDIEAVPYKQAAIVAMVAFADEYCTLRRLGFEGHKPVDSVRTLLENHPSWGVIRRSLGGSDFDEKLIVAELDSSIVEIRAAVDELFLL”, for which the “soluble on expression in E. coli” value is “not soluble”.

As for “MKRLSLREAWPYLKDLQQDPLAVLLEWGRAHPRLFLPLPRFPLALIFDPEGVEGALLAEGTTKATFQYRALSRLTGRGLLTDWGKSWKEARKALKDPFLPKSVRGYREAMEEEAWAFFGEWRGEERDLDHEMLALSLRLLGRALFGKPLSPSLAEHALKALDRIMAQTRSPLALLDLAAEARFRKDRGALYREAEALIVHPPLSHLPRERALSEAVTLLVAGHETVASALTWSFLLLSHRPDWQKRVAESEEAALAAFQEALRLYPPAWILTRRLERPLLLGEDRLPQGTTLVLSPYVTQRLYFPEGEAFQPERFLAERGTPSGRYFPFGLGQRLCLGRDFALLEGPIVLRAFFRRFRLDPLPFPRVLAQVTLRPEGGLPARPREGVRA”, the “soluble on expression in E. coli” value is given as “soluble”.

Turning to “AKEDNIEMQGTVLETLPNTMFRVELENGHVVTAHISGKMRKNYIRILTGDKVTVELTPYDLSKGRIVFRSR”, the “soluble on expression in E. coli” value is “soluble”.
